Source: patent US20030158387

Experiments:
[1] = test system: T1, full size human chemokine HCC-1 (residues 1-74)
T1 sequence: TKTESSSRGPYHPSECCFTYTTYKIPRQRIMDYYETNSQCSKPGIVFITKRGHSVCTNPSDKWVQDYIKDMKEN

[2] = test system: processed human chemokine PHC-1 (HCC-1[9-74])

Row | Substance | proteolytic cleavage (tryptic digestion, enzyme/substrate-ratio (w/w) 1/100, one hour) [1] | proteolytic degradation (tryptic digestion with increased incubation time) [2] | activity of 50 nM PHC-1 after incubation with 10 or 100 IU purified urokinase [2]
1 | trypsin | the 74 residue peptide was in part cleaved into smaller fragments. One cleavage product, the newly identified biologically active peptide PHC-1 | trypsin generated PHC-1 then degrades PHC-1 into inactive fragments when the incubation time is increased | –
2 | urokinase (purified CHOAY urokinase, Sanofi Wintrop; uPA) | – | – | No change of activity was observed after an incubation of 90 min at 37 °C
